Tests used:
MCT-induced PH [1] = assay: Histological evaluation of lung tissue damage (sum-score) in mouse model of MCT-induced PH; type: in vivo, C57BL/6 mice
Source text: PH was induced in C57BL/6 mice (bodyweight: 25-30 g). The animals were obtained from ZET facility (Zentale Experimentelle Tierhaltung) of the University Hospital Jena (UKJ, Jena, Germany). Prior to PH induction, mice were allowed to acclimatize for at least 7 days with ad libitum access to food and water as well as controlled light/dark cycles. 41 animals were investigated divided into the following five experimental groups: • 1) sham induced controls (n=7) • 2) MCT induced PH (n=12) • 3) MCT induced PH+MAC (n=6) • 4) MCT induced PH+F8 IgG (n=8) • 5) MCT induced PH+KSF IgG (n=8) For PH induction, the Monocrotaline (MCT, Carl Roth, Germany) method was used. The sham induced controls were injected with 30 μl NaCl not containing MCT at day 1 (single dose; intraperitoneally, i.p.). […] The other 4 experimental groups were injected with MCT to induce PH (single dose; intraperitoneally, i.p.; 60 mg/kg body weight; volume 30 μl). Animals in the MCT induced PH+MAC group received the drug (Macitentan, Actelion Pharmaceuticals Ltd.) from day 14 to day 28 (once daily; per os; 15 mg/kg body weight). Animals in the MCT induced PH+F8 IgG group received F8 IgG 3 times on day 14, 16 and 18 (intravenously, i.v.; 195 μg/injection; volume 200 μl). Similarly, animals in the MCT induced PH+KSF IgG group received KSF IgG 3 times on day 14, 16 and 18 (intravenously, i.v.; 195 μg/injection; volume 120 μl). Microscopic evaluation to assess histopathological lung tissue damage was performed using H&E as well as Sirius Red stained lung tissue sections according to a defined sum-score (between 0 and 12; maximum score value=highest level of tissue damage) integrating certain histological alterations frequently occurring in PH: percentage of atelectasis area, percentage of emphysema area, degree of media hypertrophy of peribronchial arteries, presence of perivascular cellular edema of peribronchial arteries, and degree of media hypertrophy of small arteries. Statistical analyses were performed using IBM SPSS statistical software, version 28.0 (IBM SPSS Statistics for Windows. Armonk, NY, USA). Data are expressed as mean±standard deviation. Kruskal-Wallis and Mann-Whitney-U test were used to test for significant differences between the different groups. A p-value<0.05 as statistically significant.

MCT-induced PH [2] = assay: Mouse model of MCT-induced PH, overall hemodynamic, echocardiographic and histopathological evaluation; type: in vivo, C57BL/6 mice; settings: compared with MAC treatment
Source text: PH was induced in C57BL/6 mice (bodyweight: 25-30 g). The animals were obtained from ZET facility (Zentale Experimentelle Tierhaltung) of the University Hospital Jena (UKJ, Jena, Germany). Prior to PH induction, mice were allowed to acclimatize for at least 7 days with ad libitum access to food and water as well as controlled light/dark cycles. 41 animals were investigated divided into the following five experimental groups: • 1) sham induced controls (n=7) • 2) MCT induced PH (n=12) • 3) MCT induced PH+MAC (n=6) • 4) MCT induced PH+F8 IgG (n=8) • 5) MCT induced PH+KSF IgG (n=8) For PH induction, the Monocrotaline (MCT, Carl Roth, Germany) method was used. […] The clinical condition was assessed using an established score (clinical severity score=CSS) from 1 to 5 (1=no signs of clinical alterations, 2=low-grade impairment, 3=mid-grade impairment, 4=high-grade impairment, 5=exitus) obtained by evaluating spontaneous activity, reaction to exogenous stimuli and posture. […] Body temperature and respiratory rate were continuously monitored. All surrogate parameters of right ventricular (RV) morphology and function were assessed, among others, RV basal and medial diameters (in mm), RV length (in mm), tricuspid annular plane systolic excursion (TAPSE, in mm), right atrial area (RA area, in mm^2) or main pulmonary artery diameter (MPA, in mm). […] Data are expressed as mean±standard deviation. […]

B1: F8 IgG: Chimaeric anti-ED-A antibody: human F8 VH/VL fused to murine IgG2a constant regions; heavy chain SEQ ID NO: 11, light chain SEQ ID NO: 12 (antibody)
heavy: EVQLLESGGGLVQPGGSLRLSCAASGFTFSLFTMSWVRQAPGKGLEWVSAISGSGGSTYYADSVKGRFTISRDNSKNTLYLQMNSLRAEDTAVYYCAKSTHLYLFDYWGQGTLVTVSSAKTTAPSVYPLAPVCGDTTGSSVTLGCLVKGYFPEPVTLTWNSGSLSSGVHTFPAVLQSDLYTLSSSVTVTSSTWPSQSITCNVAHPASSTKVDKKIEPRGPTIKPCPPCKCPAPNLLGGPSVFIFPPKIKDVLMISLSPIVTCVVVDVSEDDPDVQISWFVNNVEVHTAQTQTHREDYNSTLRVVSALPIQHQDWMSGKEFKCKVNNKDLPAPIERTISKPKGSVRAPQVYVLPPPEEEMTKKQVTLTCMVTDFMPEDIYVEWTNNGKTELNYKNTEPVLDSDGSYFMYSKLRVEKKNWVERNSYSCSVVHEGLHNHHTTKSFSRTPGK
light: EIVLTQSPGTLSLSPGERATLSCRASQSVSMPFLAWYQQKPGQAPRLLIYGASSRATGIPDRFSGSGSGTDFTLTISRLEPEDFAVYYCQQMRGRPPTFGQGTKVEIKRTDAAPTVSIFPPSSEQLTSGGASVVCFLNNFYPKDINVKWKIDGSERQNGVLNSWTDQDSKDSTYSMSSTLTLTKDEYERHNSYTCEATHKTSTSPIVKSFNRNEC
histopathological lung tissue damage (sum-score 0 to 12) compared to the MCT-induced PH group without treatment (MCT-induced PH [1]; MAC p=0.020, F8 IgG p=0.005, KSF IgG p=0.907): significantly reduced | histopathological lung tissue damage (sum-score 0 to 12) compared to negative controls (MCT-induced PH [1]; all groups p<0.05, F8 IgG p=0.002): significantly increased | lung tissue damage at the histopathological level (MCT-induced PH [1]; in contrast to treatment with KSF IgG): attenuation | beneficial effects with respect to the majority of the parameters (RVPsys, echocardiographic signs, lung tissue damage) (MCT-induced PH [2]): superior to MAC treatment

Reference: patent US20250197485A1, “Anti-ED-A Antibodies for the Treatment of Pulmonary Hypertension” (Universitätsklinikum Jena, priority 2022, published 2025)
